Measured values taken from patent publication US20220119534A1 (DRAGONFLY THERAPEUTICS, published 2022).
Values joined by “and” are separate entries in the source; they are usually repeats but may differ in a detail not shown here. Equal entries are not always repeated. One block for each binder: values may come before it.

Legend:
Human CLEC12A-His [1] = target: T1, Human CLEC12A-His (human, UniProt Q5QGZ9 65-265); assay: SPR Biacore 8K 37 C; TriNKET captured on anti-hFc chip, hCLEC12A-His as analyte; 1:1 fit; after 4 wks 2-8 C in CST pH 7.0, n=2
T1 construct: Recombinant soluble protein made in house (Dragonfly Tx); The hCLEC12A spot of the HuProt array is written under this molecule as well; also called hCLEC12A-His; hCLEC12A; not shown: His tag
T1 sequence: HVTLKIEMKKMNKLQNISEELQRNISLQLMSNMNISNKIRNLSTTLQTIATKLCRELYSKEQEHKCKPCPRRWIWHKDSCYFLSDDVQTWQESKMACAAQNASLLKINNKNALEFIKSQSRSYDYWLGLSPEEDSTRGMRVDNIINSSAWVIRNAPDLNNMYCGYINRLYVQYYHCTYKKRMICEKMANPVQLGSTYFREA

mFc-hNKG2D = target: T2, mFc-hNKG2D (human, UniProt P26718 73-216); assay: SPR Biacore 8K 37 C; mFc-hNKG2D captured on anti-mFc chip, TriNKET as analyte; 1:1 kinetic fit; pH 5.0 control
T2 construct: extracellular domain; Made in house (Dragonfly Tx); the order of tag and ECD follows the name mFc-hNKG2D; also called mFc-tagged human NKG2D; not shown: mouse Fc tag
T2 sequence (looked up): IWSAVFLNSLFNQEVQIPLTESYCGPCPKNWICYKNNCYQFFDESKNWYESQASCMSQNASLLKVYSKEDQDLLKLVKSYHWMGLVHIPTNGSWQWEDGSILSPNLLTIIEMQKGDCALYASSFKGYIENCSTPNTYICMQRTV

Human CLEC12A-His [2] = target: T1, Human CLEC12A-His; assay: SPR Biacore 8K 37 C; TriNKET captured on anti-hFc chip, hCLEC12A-His as analyte; 1:1 fit; pH 5.0 control, n=2
Human CD32b = target: T3, Human CD32b (human, UniProt P31994 46-217, limits assumed, biotinylated); assay: SPR, steady state fit
T3 construct: Bought recombinant receptor; also called hFcγRIIb
T3 sequence (looked up): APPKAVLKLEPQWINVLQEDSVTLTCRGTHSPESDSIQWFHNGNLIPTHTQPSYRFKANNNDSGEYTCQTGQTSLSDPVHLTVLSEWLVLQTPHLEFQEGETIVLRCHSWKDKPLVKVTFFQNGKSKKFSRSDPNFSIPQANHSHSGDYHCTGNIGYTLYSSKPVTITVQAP

Human CLEC12A-His [3] = target: T4, Human CLEC12A-His (human, UniProt Q5QGZ9 65-265); assay: SPR, 37 C, AB0192 captured, hCLEC12A-His analyte; average of 3 replicates
T4 construct: Recombinant soluble protein made in house; also called hCLEC12A-His; hCLEC12A; not shown: His tag
T4 sequence: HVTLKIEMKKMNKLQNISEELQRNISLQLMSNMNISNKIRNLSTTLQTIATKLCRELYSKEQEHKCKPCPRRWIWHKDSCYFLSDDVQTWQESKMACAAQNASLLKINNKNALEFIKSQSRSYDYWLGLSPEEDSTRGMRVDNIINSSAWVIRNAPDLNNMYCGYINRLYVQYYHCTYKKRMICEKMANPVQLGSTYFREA

recombinant human CD64 = target: T5, recombinant human CD64 (human, UniProt P12314 16-288, biotinylated); assay: SPR 25C, kinetic fit, average
T5 construct: also called hFcγRI; hCD64
T5 sequence (P12314 16-288 limits assumed): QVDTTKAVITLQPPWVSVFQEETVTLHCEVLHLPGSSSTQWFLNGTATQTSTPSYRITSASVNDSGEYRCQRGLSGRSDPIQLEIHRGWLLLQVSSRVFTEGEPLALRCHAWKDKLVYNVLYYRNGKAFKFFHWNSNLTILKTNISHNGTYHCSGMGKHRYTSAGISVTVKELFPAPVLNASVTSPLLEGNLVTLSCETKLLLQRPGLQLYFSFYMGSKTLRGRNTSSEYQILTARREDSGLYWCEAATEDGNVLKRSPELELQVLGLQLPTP
Experimental: (§1) Human and cyno CD64, high and low affinity alleles of CD16a (V158 and F158, respectively), two alleles of CD32a (H131 and R131), CD16b, CD32b and cynomolgus CD16 were captured via biotin on a primed Biacore chip, prepared according to the manufacturer's instructions.
For no-signal reference, a 0 nM blank cycle at the start of each concentration series and receptor free chip surface were used. Each experimental cycle included association, dissociation and regeneration steps. All steps were executed at a flow rate of 30 μL/min and at 25° C.

recombinant human CD16b = target: T6, recombinant human CD16b (human, UniProt O75015 17-200, limits assumed, biotinylated); assay: SPR 25C, steady state, average
T6 construct: also called FcγRIIIb
T6 sequence (O75015 17-200 limits assumed): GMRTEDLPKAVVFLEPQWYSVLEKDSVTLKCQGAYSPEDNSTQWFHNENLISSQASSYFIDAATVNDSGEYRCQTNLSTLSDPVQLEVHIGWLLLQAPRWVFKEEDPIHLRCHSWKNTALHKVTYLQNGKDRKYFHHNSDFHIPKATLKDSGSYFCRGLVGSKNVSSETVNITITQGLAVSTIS

[4] = target: T7, recombinant cynomolgus CD16 (cynomolgus monkey, UniProt Q8SPW2 17-208, biotinylated); assay: SPR 25C, steady state, average
T7 construct: also called cFcγRIII; cyno CD16
T7 sequence (Q8SPW2 17-208 limits assumed): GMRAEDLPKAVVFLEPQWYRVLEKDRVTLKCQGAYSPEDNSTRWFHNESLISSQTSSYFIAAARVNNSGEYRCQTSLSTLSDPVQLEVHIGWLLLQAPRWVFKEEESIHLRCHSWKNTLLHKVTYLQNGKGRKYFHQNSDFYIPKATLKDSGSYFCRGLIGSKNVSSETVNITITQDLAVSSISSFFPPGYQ
Text: as §1

Kd (Human CLEC12A-His [1]): 0.91 nM
koff (Human CLEC12A-His [1]): 0.000708 s⁻¹
kon (Human CLEC12A-His [1]): 776000 M⁻¹ s⁻¹
Kd (mFc-hNKG2D): 678 nM
koff (mFc-hNKG2D): 0.128 s⁻¹
kon (mFc-hNKG2D): 189000 M⁻¹ s⁻¹
Kd (Human CLEC12A-His [2]): 1.07 nM
koff (Human CLEC12A-His [2]): 0.000853 s⁻¹
kon (Human CLEC12A-His [2]): 799000 M⁻¹ s⁻¹
B1: F3'-1602 TriNKET (bispecific antibody, human IgG1, kappa)
chain: QLQLQESGPGLVKPSETLSLTCTVSGFSLTNYGLHWIRQPPGKCLEWIGVIWSGGKTDYNPSLKSRVTISKDTSKNQFSLKLSSVQAADTAVYYCAKYDYDDSLDYWGQGTLVTVSSGGGGSGGGGSGGGGSGGGGSDIQMTQSPSSLSASVGDRVTITCHASQNINFWLSWYQQKPGKAPKLLIYEASNLHTGVPSRFSGSGSGTRFTLTISSLQPEDIATYYCQQSHSYPLTFGCGTKLEIKGSDKTHTCPPCPAPELLGGPSVFLFPPKPKDTLMISRTPEVTCVVVDVSHEDPEVKFNWYVDGVEVHNAKTKPREEQYNSTYRVVSVLTVLHQDWLNGKEYKCKVSNKALPAPIEKTISKAKGQPREPRVYTLPPCRDELTKNQVSLTCLVKGFYPSDIAVEWESNGQPENNYKTTPPVLVSDGSFTLYSKLTVDKSRWQQGNVFSCSVMHEALHNHYTQKSLSLSPG
heavy: EVQLVESGGGLVKPGGSLRLSCAASGFTFSSYSMNWVRQAPGKGLEWVSSISSSSSYIYYADSVKGRFTISRDNAKNSLYLQMNSLRAEDTAVYYCARGAPIGAAAGWFDPWGQGTLVTVSSASTKGPSVFPLAPSSKSTSGGTAALGCLVKDYFPEPVTVSWNSGALTSGVHTFPAVLQSSGLYSLSSVVTVPSSSLGTQTYICNVNHKPSNTKVDKKVEPKSCDKTHTCPPCPAPELLGGPSVFLFPPKPKDTLMISRTPEVTCVVVDVSHEDPEVKFNWYVDGVEVHNAKTKPREEQYNSTYRVVSVLTVLHQDWLNGKEYKCKVSNKALPAPIEKTISKAKGQPREPQVCTLPPSRDELTENQVSLTCLVKGFYPSDIAVEWESNGQPENNYKTTPPVLDSDGSFFLYSWLTVDKSRWQQGNVFSCSVMHEALHNHYTQKSLSLSPG
light: DIQMTQSPSSVSASVGDRVTITCRASQGISSWLAWYQQKPGKAPKLLIYAASSLQSGVPSRFSGSGSGTDFTLTISSLQPEDFATYYCQQGVSFPRTFGGGTKVEIKRTVAAPSVFIFPPSDEQLKSGTASVVCLLNNFYPREAKVQWKVDNALQSGNSQESVTEQDSKDSTYSLSSTLTLSKADYEKHKVYACEVTHQGLSSPVTKSFNRGEC
notes: Trispecific F3' format: CLEC12A scFv-Fc paired with NKG2D Fab-Fc; Stressed and control samples of the stability studies are the same molecule; also called AB0237

Kd (Human CD32b): 6500 nM and 5600 nM and 5200 nM and 7000 nM
Kd (Human CLEC12A-His [3]): 1.81 nM
koff (Human CLEC12A-His [3]): 0.0014 s⁻¹
kon (Human CLEC12A-His [3]): 776000 M⁻¹ s⁻¹
B2: AB0192 TriNKET (other)
chain: EVQLVESGGGVVQPGGSLRLSCAASGFTFNAFGMHWVRQAPGKCLEWVAFISSGSTSIYYANTVKGRFTISRDNSKNTLYLQMNSLRAEDTAVYYCARDGYPTGGAMDYWGQGTSVTVSSGGGGSGGGGSGGGGSGGGGSDIQMTQSPSSLSASVGDRVTITCKASQDIYNYLSWFQQKPGKAPKPLIYRANILVSGVPSRFSGSGSGQDYTFTISSLQPEDIATYYCLQFDAFPFTFGCGTKLEIKGSDKTHTCPPCPAPELLGGPSVFLFPPKPKDTLMISRTPEVTCVVVDVSHEDPEVKFNWYVDGVEVHNAKTKPREEQYNSTYRVVSVLTVLHQDWLNGKEYKCKVSNKALPAPIEKTISKAKGQPREPRVYTLPPCRDELTKNQVSLTCLVKGFYPSDIAVEWESNGQPENNYKTTPPVLVSDGSFTLYSKLTVDKSRWQQGNVFSCSVMHEALHNHYTQKSLSLSPG
heavy: EVQLVESGGGLVKPGGSLRLSCAASGFTFSSYSMNWVRQAPGKGLEWVSSISSSSSYIYYADSVKGRFTISRDNAKNSLYLQMNSLRAEDTAVYYCARGAPIGAAAGWFDPWGQGTLVTVSSASTKGPSVFPLAPSSKSTSGGTAALGCLVKDYFPEPVTVSWNSGALTSGVHTFPAVLQSSGLYSLSSVVTVPSSSLGTQTYICNVNHKPSNTKVDKKVEPKSCDKTHTCPPCPAPELLGGPSVFLFPPKPKDTLMISRTPEVTCVVVDVSHEDPEVKFNWYVDGVEVHNAKTKPREEQYNSTYRVVSVLTVLHQDWLNGKEYKCKVSNKALPAPIEKTISKAKGQPREPQVCTLPPSRDELTENQVSLTCLVKGFYPSDIAVEWESNGQPENNYKTTPPVLDSDGSFFLYSWLTVDKSRWQQGNVFSCSVMHEALHNHYTQKSLSLSPG
light: DIQMTQSPSSVSASVGDRVTITCRASQGISSWLAWYQQKPGKAPKLLIYAASSLQSGVPSRFSGSGSGTDFTLTISSLQPEDFATYYCQQGVSFPRTFGGGTKVEIKRTVAAPSVFIFPPSDEQLKSGTASVVCLLNNFYPREAKVQWKVDNALQSGNSQESVTEQDSKDSTYSLSSTLTLSKADYEKHKVYACEVTHQGLSSPVTKSFNRGEC
notes: the condition stands under assay; also called AB0192 Lot AB0192-005

Kd (recombinant human CD64): 5.2 nM
koff (recombinant human CD64): 0.00027 s⁻¹
kon (recombinant human CD64): 52000 M⁻¹ s⁻¹
Kd (recombinant human CD16b): 7500 nM
Kd [4]: 306 nM
B3: F3'-1602 TriNKET (other)
chain: QLQLQESGPGLVKPSETLSLTCTVSGFSLTNYGLHWIRQPPGKCLEWIGVIWSGGKTDYNPSLKSRVTISKDTSKNQFSLKLSSVQAADTAVYYCAKYDYDDSLDYWGQGTLVTVSSGGGGSGGGGSGGGGSGGGGSDIQMTQSPSSLSASVGDRVTITCHASQNINFWLSWYQQKPGKAPKLLIYEASNLHTGVPSRFSGSGSGTRFTLTISSLQPEDIATYYCQQSHSYPLTFGCGTKLEIKGSDKTHTCPPCPAPELLGGPSVFLFPPKPKDTLMISRTPEVTCVVVDVSHEDPEVKFNWYVDGVEVHNAKTKPREEQYNSTYRVVSVLTVLHQDWLNGKEYKCKVSNKALPAPIEKTISKAKGQPREPRVYTLPPCRDELTKNQVSLTCLVKGFYPSDIAVEWESNGQPENNYKTTPPVLVSDGSFTLYSKLTVDKSRWQQGNVFSCSVMHEALHNHYTQKSLSLSPG
heavy: EVQLVESGGGLVKPGGSLRLSCAASGFTFSSYSMNWVRQAPGKGLEWVSSISSSSSYIYYADSVKGRFTISRDNAKNSLYLQMNSLRAEDTAVYYCARGAPIGAAAGWFDPWGQGTLVTVSSASTKGPSVFPLAPSSKSTSGGTAALGCLVKDYFPEPVTVSWNSGALTSGVHTFPAVLQSSGLYSLSSVVTVPSSSLGTQTYICNVNHKPSNTKVDKKVEPKSCDKTHTCPPCPAPELLGGPSVFLFPPKPKDTLMISRTPEVTCVVVDVSHEDPEVKFNWYVDGVEVHNAKTKPREEQYNSTYRVVSVLTVLHQDWLNGKEYKCKVSNKALPAPIEKTISKAKGQPREPQVCTLPPSRDELTENQVSLTCLVKGFYPSDIAVEWESNGQPENNYKTTPPVLDSDGSFFLYSWLTVDKSRWQQGNVFSCSVMHEALHNHYTQKSLSLSPG
light: DIQMTQSPSSVSASVGDRVTITCRASQGISSWLAWYQQKPGKAPKLLIYAASSLQSGVPSRFSGSGSGTDFTLTISSLQPEDFATYYCQQGVSFPRTFGGGTKVEIKRTVAAPSVFIFPPSDEQLKSGTASVVCLLNNFYPREAKVQWKVDNALQSGNSQESVTEQDSKDSTYSLSSTLTLSKADYEKHKVYACEVTHQGLSSPVTKSFNRGEC
notes: CLEC12A scFv-Fc, NKG2D A49MI Fab-Fc, human IgG1 Fc; also called AB0237
